We go through 3 molecules from patent US20180244776A1.

To fix the notation:
T1: human Sema3A (human) (UniProt Q14563)
T1 sequence (looked up): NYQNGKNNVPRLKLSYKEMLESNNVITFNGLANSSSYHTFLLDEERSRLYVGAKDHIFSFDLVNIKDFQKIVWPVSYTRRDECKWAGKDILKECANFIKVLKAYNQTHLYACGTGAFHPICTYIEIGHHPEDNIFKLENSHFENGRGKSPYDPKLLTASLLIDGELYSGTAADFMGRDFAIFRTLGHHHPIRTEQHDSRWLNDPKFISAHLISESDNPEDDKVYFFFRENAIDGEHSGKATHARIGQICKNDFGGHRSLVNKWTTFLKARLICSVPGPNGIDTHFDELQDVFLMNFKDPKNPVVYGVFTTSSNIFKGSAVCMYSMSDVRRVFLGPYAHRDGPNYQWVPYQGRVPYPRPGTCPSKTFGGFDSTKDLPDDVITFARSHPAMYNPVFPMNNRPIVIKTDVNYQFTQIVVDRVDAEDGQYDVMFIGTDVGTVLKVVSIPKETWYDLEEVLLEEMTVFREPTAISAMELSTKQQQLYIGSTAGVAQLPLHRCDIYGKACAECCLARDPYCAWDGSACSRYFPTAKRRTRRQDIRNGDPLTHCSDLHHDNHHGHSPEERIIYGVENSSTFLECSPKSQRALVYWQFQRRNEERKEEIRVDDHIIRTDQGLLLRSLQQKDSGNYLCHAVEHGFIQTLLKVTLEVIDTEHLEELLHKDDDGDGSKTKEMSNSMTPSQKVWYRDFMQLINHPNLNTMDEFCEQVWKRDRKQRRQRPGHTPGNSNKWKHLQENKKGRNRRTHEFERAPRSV

B1: F11 anti-Sema3A scFv antibody fragment (scFv, part only; not given: linker and His/HA tags, V domains shown, not shown: another chain or arm of the molecule; large carriers; small tags and cut ends)
VH: EVQLLESGGGLVQTGGSLRLSCAASGFTFSDYAMSWVRQAPGKGLEWVSWIYYDSGSKYYADSVKGRFTISRDNSKNTLYLQMNSLRAEDTAVYYCAKLNGDFDYWGQGTLVTVSS
VL: QSVLTQPPSASGTPGQRVTISCSGSSSNIGNNDVSWYQQLPGTAPKLLIYADSHRPSGVPDRFSGSKSGTSASLAISGLRSEDEADYYCGAWDSSLSGYVFGGGTKLTVL
B2: C10 anti-Sema3A scFv antibody fragment (scFv, part only; not given: linker and His/HA tags, V domains shown, not shown: another chain or arm of the molecule; large carriers; small tags and cut ends)
VH: EVQLLESGGGLVQPGGSLRLSCAASGFTFSDYAMSWVRQAPGKGLEWVSGIYYDDSSQYYADSVEGRFTISRDNSKNTLYLQMNSLRAEDTAVYYCARYLGLFDYWGQGTLVTVSS
VL: QSVLTQPPSASGTPGQRVTISCSGSSSNIGNNSVNWYQQLPGTAPKLLIYSDSQRPSGVPDRFSGSKSGTSASLAISGLRSEDEADYYCGSWDYSLSAYVFGGGTKLTVL
B3: A08 anti-Sema3A scFv antibody fragment (scFv, part only; not given: linker and His/HA tags, V domains shown, not shown: another chain or arm of the molecule; large carriers; small tags and cut ends)
VH: EVQLLESGGGLVQPGGSLRLSCAASGFTFSDYAMSWVRQAPGKGLEWVSGIYYDDSSQYYADSVKGRFTISRDNSKNTLYLQMNSLRAEDTAVYYCAKNLGRFDYWGQGTLVTVSS
VL: QSVLTQPPSASGTPGQRVTISCTGSSSNIGSNAVTWYQQLPGTAPKLLIYDDNHRPSGVPDRFSGSKSGTSASLAISGLRSEDEADYYCGAWDDSLSAYVFGGGTKLTVL

This experiment concerns the target T1, human Sema3A (human). The experiment can be described thus: cell-based or functional assay.
Take B1: the cell migration of U87-MG cells (transwell, 50 ug/ml scFv) was 74 % of control; the cell migration of patient-derived 83 cells (transwell) is 28%; the cell migration of patient-derived 131 cells (transwell) was 7%.

Take B2: the cell migration of U87-MG cells (transwell, 50 ug/ml scFv) was 70 % of control; the cell migration of patient-derived 83 cells (transwell) was 44%; the cell migration of patient-derived 131 cells (transwell) amounted to 19%.

As for B3, the cell migration of U87-MG cells (transwell, 50 ug/ml scFv) was 78 % of control; the cell migration of patient-derived 83 cells (transwell) was determined as 21%; the cell migration of patient-derived 131 cells (transwell) came out at 11%.
